Here are results for 13 molecules from publication PMC10786891, “Massively parallel profiling of RNA-targeting CRISPR-Cas13d”.

T1: EsCas13d, nuclease-dead (Eubacterium siraeum, UniProt B0MS50, R295A;H300A;R849A;H854A)
T1 sequence: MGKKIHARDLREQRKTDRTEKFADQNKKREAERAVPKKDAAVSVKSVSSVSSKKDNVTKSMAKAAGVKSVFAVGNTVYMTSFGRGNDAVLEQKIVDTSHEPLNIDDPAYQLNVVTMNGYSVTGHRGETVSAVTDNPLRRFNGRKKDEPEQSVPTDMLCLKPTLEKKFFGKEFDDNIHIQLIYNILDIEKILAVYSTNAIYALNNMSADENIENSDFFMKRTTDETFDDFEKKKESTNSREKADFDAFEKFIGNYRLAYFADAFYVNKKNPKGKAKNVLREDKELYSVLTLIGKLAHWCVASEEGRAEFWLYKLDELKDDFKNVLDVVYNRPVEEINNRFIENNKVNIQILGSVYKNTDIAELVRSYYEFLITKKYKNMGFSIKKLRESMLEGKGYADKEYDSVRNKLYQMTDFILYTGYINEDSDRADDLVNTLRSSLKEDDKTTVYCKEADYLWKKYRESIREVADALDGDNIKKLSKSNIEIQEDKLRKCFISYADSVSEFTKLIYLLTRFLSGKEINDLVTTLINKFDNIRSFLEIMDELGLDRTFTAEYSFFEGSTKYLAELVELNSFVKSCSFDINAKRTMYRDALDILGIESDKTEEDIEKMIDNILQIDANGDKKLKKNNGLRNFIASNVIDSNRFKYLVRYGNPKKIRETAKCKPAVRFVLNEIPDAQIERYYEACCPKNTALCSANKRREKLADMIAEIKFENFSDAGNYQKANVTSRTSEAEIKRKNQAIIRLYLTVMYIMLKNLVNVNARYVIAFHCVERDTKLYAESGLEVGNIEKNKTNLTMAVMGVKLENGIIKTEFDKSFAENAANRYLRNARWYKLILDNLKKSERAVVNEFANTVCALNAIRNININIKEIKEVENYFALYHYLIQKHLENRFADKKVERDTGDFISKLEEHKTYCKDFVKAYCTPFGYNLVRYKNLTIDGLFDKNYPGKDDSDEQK

B1: target 1 insU 3' of 12,insG 3' of 3 (mixed)
RNA 1: CACCCGUGCAAAAAUGCAGGGGUCUAAAACUGAGCGGAUAACCUCUCUAUGG
RNA 2: GGGAAUGGAUCCACAUCUACGAAUUCGUACCAUAGAGAGGUUUAUCCGCUGCACCGAGAUCGGAAGAGCACACGU
B2: target 1 insA 3' of 21,insC 3' of 18 (mixed)
RNA 1: CACCCGUGCAAAAAUGCAGGGGUCUAAAACUGAGCGGAUAACCUCUCUAUGG
RNA 2: GGGAAUGGAUCCACAUCUACGAAUUCGUACCAAUACGAGAGGUUAUCCGCUCACCGAGAUCGGAAGAGCACACGU
B3: target 3 insC 3' of 4 (mixed)
RNA 1: CACCCGUGCAAAAUUGCAGGGGUCUAAAACGACCUGAAUAUUUCAGAUCAAA
RNA 2: GGGAAUGGAUCCACAUCUACGAAUUCGUUUUUGAUCUGAAAUAUUCAGCGUCUGCAGAUCGGAAGAGCACACGU
B4: target 3 U2G,G3U (mixed)
RNA 1: CACCCGUGCAAAAUUGCAGGGGUCUAAAACGACCUGAAUAUUUCAGAUCAAA
RNA 2: GGGAAUGGAUCCACAUCUACGAAUUCGUUUUUGAUCUGAAAUAUUCAGUGCUGCAGAUCGGAAGAGCACACGU
B5: target 3 U2G,U22G (mixed)
RNA 1: CACCCGUGCAAAAUUGCAGGGGUCUAAAACGACCUGAAUAUUUCAGAUCAAA
RNA 2: GGGAAUGGAUCCACAUCUACGAAUUCGUUGUUGAUCUGAAAUAUUCAGGGCUGCAGAUCGGAAGAGCACACGU
B6: target 3 G4A,A12U (mixed)
RNA 1: CACCCGUGCAAAAUUGCAGGGGUCUAAAACGACCUGAAUAUUUCAGAUCAAA
RNA 2: GGGAAUGGAUCCACAUCUACGAAUUCGUUUUUGAUCUGAUAUAUUCAAGUCUGCAGAUCGGAAGAGCACACGU
B7: target 3 insC 3' of 12,insA 3' of 2 (mixed)
RNA 1: CACCCGUGCAAAAUUGCAGGGGUCUAAAACGACCUGAAUAUUUCAGAUCAAA
RNA 2: GGGAAUGGAUCCACAUCUACGAAUUCGUUUUUGAUCUGAACAUAUUCAGGUACUGCAGAUCGGAAGAGCACACGU
B8: target 3 U2G,A9G (mixed)
RNA 1: CACCCGUGCAAAAUUGCAGGGGUCUAAAACGACCUGAAUAUUUCAGAUCAAA
RNA 2: GGGAAUGGAUCCACAUCUACGAAUUCGUUUUUGAUCUGAAAUGUUCAGGGCUGCAGAUCGGAAGAGCACACGU
B9: target 3 G3A,U7A (mixed)
RNA 1: CACCCGUGCAAAAUUGCAGGGGUCUAAAACGACCUGAAUAUUUCAGAUCAAA
RNA 2: GGGAAUGGAUCCACAUCUACGAAUUCGUUUUUGAUCUGAAAUAUACAGAUCUGCAGAUCGGAAGAGCACACGU
B10: target 3 insA 3' of 22,insA 3' of 22 (mixed)
RNA 1: CACCCGUGCAAAAUUGCAGGGGUCUAAAACGACCUGAAUAUUUCAGAUCAAA
RNA 2: GGGAAUGGAUCCACAUCUACGAAUUCGUUUAAUUGAUCUGAAAUAUUCAGGUCUGCAGAUCGGAAGAGCACACGU
B11: target 3 insA 3' of 10,insU 3' of 4 (mixed)
RNA 1: CACCCGUGCAAAAUUGCAGGGGUCUAAAACGACCUGAAUAUUUCAGAUCAAA
RNA 2: GGGAAUGGAUCCACAUCUACGAAUUCGUUUUUGAUCUGAAAUAAUUCAGUGUCUGCAGAUCGGAAGAGCACACGU
B12: target 3 insU 3' of 22,insA 3' of 7 (mixed)
RNA 1: CACCCGUGCAAAAUUGCAGGGGUCUAAAACGACCUGAAUAUUUCAGAUCAAA
RNA 2: GGGAAUGGAUCCACAUCUACGAAUUCGUUUUUUGAUCUGAAAUAUUACAGGUCUGCAGAUCGGAAGAGCACACGU
B13: target 3 insU 3' of 22,insC 3' of 5 (mixed)
RNA 1: CACCCGUGCAAAAUUGCAGGGGUCUAAAACGACCUGAAUAUUUCAGAUCAAA
RNA 2: GGGAAUGGAUCCACAUCUACGAAUUCGUUUUUUGAUCUGAAAUAUUCACGGUCUGCAGAUCGGAAGAGCACACGU

The data set deals with T1, EsCas13d, nuclease-dead. As to the kind of experiment: crRNA (strand 1, pre-loaded); Mg2+; 40 mM Tris-HCl pH 7.5, 150 mM NaCl, 6 mM MgCl2, 1 mM DTT, 0.1% Tween-20, 0.2 mg/ml BSA; 25 C; 10 min per concentration, then washed. As to conditions: tags: His6-TwinStrep-SUMO cleaved; N-terminal SNAP kept (SNAP-Surface 488); label: 3' end held by stalled T7 RNA polymerase.
B1 displayed a Kd of 6.3 ± 0.4 nM. Turning to B2, binding was put at a Kd of 47 ± 7 nM. Consider B3, for which the Kd was 19 ± 2.45 nM. In turn, B4 registered a Kd of 9.2 ± 0.8 nM. Turning to B5, the Kd amounted to 61.5 ± 14.5 nM. In the case of B6 it was 72.5 ± 11 nM. Consider B7, for which the Kd is ~102 nM. Regarding B8, the equilibrium dissociation constant (Kd) was 36 ± 5 nM. In the case of B9 it was 72.5 ± 14.5 nM.

Consider B10, for which the Kd worked out at 19.4 ± 2.45 nM. As for B11, the figure is 59 ± 13 nM; as for B12, 68.5 ± 19 nM; as for B13, 24.1 ± 2.9 nM.

As a reminder, the Kd is the constant that tells how readily two partners part at equilibrium. Low values mean a tighter complex, high ones a looser complex.
